Measured values as given in patent US20250263472A1 (IGGENIX, published 2025).

Target: T1, Natural Ara h 6 (InBio) (peanut, UniProt Q647G9 22-145)
T1 sequence (looked up): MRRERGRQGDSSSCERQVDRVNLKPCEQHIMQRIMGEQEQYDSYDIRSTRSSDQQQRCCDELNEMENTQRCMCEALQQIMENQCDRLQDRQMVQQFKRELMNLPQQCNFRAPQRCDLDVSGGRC
Test: told in the description of Combination-1; assay not named

B1: Molecule-1a (bispecific antibody, human IgG4 S228P, kappa)
heavy: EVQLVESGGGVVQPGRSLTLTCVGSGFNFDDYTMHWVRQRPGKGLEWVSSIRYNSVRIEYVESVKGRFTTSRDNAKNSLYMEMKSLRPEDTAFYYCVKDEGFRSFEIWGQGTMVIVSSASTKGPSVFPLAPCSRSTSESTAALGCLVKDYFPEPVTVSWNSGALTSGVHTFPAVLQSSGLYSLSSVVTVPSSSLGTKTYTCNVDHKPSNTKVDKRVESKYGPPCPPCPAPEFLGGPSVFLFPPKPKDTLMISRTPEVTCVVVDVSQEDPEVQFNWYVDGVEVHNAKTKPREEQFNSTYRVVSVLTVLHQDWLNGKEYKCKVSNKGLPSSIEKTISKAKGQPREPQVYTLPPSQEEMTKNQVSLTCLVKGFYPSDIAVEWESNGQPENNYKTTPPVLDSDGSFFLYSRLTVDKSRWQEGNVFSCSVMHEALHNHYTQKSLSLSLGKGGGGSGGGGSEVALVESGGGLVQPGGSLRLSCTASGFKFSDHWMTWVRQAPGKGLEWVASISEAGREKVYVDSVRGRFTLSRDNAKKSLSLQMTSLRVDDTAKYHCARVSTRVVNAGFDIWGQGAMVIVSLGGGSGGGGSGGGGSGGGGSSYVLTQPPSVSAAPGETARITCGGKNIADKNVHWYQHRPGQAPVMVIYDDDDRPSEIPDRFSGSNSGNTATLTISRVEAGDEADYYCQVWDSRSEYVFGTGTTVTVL
light: DIVMTQSPLSLPVTPGEPASISCRSTQSLEHSNGYHYLDWYVQKAGQSPQLLISLGSKRASGVPDRFSGSVSGTDFTLKISRVEAEDVGVYYCMQALQTWTFGQGTKVEIKRTVAAPSVFIFPPSDEQLKSGTASVVCLLNNFYPREAKVQWKVDNALQSGNSQESVTEQDSKDSTYSLSSTLTLSKADYEKHKVYACEVTHQGLSSPVTKSFNRGEC
notes: CMC liabilities removed; also called Molecule-1 (of Combination-1)
- binding result: binds
